Laboratory results published in the supplement of paper PMC7877785.
± gives the uncertainty stated by the source.

Assay: self-splicing fitness, log relative to wild type (ln ratio); higher = more splicing; Tetrahymena group I intron in knt gene, E. coli kanamycin selection, DiMSum; sequences stand for … in CUCUCU…GGAGGGAAAAGUUAUCAGGCAUGCACCUGGUAGCUAGUCUUUAAACCAAUAGAUUGCAUCGGUUUAAAAGGCAAGACCGUCAAAUUGCGGGAAAGGGGUCAACAGCCGUUCAGUACCAAGUCUCAGGGGAAACUUUGAGAUGGCCUUGCAAAGGGUAUGGUAAUAAGCUGACGGACAUGGUCCUAACCACGCAGCCAAGUCCUAAGUCAACAGAUCUUCUGUUGAUAUGGAUGCAGUUCACAGACUAAAUGUCGGUCGGGGAAGAUGUAUUCUUCUCAUAAGAUAUAGUCGGACCUCUCCUUAAUGGGAGCUAGCGGAUGAAGUGAUGCAACACUGGAGCCGCUGGGAACUAAUUUGUAUGCGAAAGUAUAUUGAUUAGUUUUGGAGUACUCGUGGUCG
How it was run: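 Colonies from six replicate transformations of E. coli BL21(DE3) were pooled and amplicon-sequenced on an Illumina HiSeq 2500. The library placed an intron with all eight P1ex-region nucleotides randomised inside the knt kanamycin-resistance gene on pET-22b(+), and cells grew overnight at 37°C or 30°C on LB agar with or without 25 μg/mL kanamycin (plus 100 μg/mL carbenicillin, 50 μM IPTG, 0.2% rhamnose). Fitness is the DiMSum error-weighted combination of wild-type-normalised replicate fold changes, kanamycin versus none.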

Sequence	self-splicing fitness (ln) (30 °C)	self-splicing fitness (ln) (37 °C)
AUGAAGCAAUAUUACGACCA	0.00939 ± 0.06	0.489 ± 0.083
UGACAGCAAUAUUACGUUCC	-1.55 ± 0.1	-0.947 ± 0.14
CGGCAGCAAUAUUACGACCU	-0.341 ± 0.089	-0.0632 ± 0.11
CUGUAGCAAUAUUACGGGCU	-4.31 ± 0.3	-3.2 ± 0.29
CGGGAGCAAUAUUACGGAGU	-3.92 ± 0.27	-2.77 ± 0.2
GUGCAGCAAUAUUACGGCAC	-0.83 ± 0.2	-1.46 ± 0.24
UGGAAGCAAUAUUACGCCAU	-3.64 ± 0.28	-2.07 ± 0.36
UGGCAGCAAUAUUACGGGCU	-3.06 ± 0.16	-2.02 ± 0.15
GGGCAGCAAUAUUACGGCUA	-0.49 ± 0.13	0.227 ± 0.14
GCUGAGCAAUAUUACGCAGG	-1.66 ± 0.13	-1.56 ± 0.15
CCAUAGCAAUAUUACGAGUC	-4.04 ± 0.19	-2.89 ± 0.21
UAUGAGCAAUAUUACGUGUC	-3.77 ± 0.28	-3.2 ± 0.4
GGCGAGCAAUAUUACGUUUA	-1.4 ± 0.087	-0.372 ± 0.11
CUAAAGCAAUAUUACGGUUG	-0.57 ± 0.056	-0.138 ± 0.081
UCGUAGCAAUAUUACGUGUG	-2.3 ± 0.1	-1.41 ± 0.089
GUUAAGCAAUAUUACGAACU	-2.35 ± 0.2	-0.527 ± 0.2
ACCAAGCAAUAUUACGCACA	-0.684 ± 0.075	0.0111 ± 0.087
AUCCAGCAAUAUUACGUCUU	-0.371 ± 0.065	0.716 ± 0.081
UCUUAGCAAUAUUACGCUUG	-2.43 ± 0.24	-1.89 ± 0.23
GAAUAGCAAUAUUACGAUGU	-1.3 ± 0.076	-1.04 ± 0.12
UAUCAGCAAUAUUACGAGUG	-0.353 ± 0.058	-0.197 ± 0.072
AGGCAGCAAUAUUACGGAUA	-1.85 ± 0.22	-2.11 ± 0.22
CUAGAGCAAUAUUACGUGAA	-3.81 ± 0.23	-2.07 ± 0.26
CACUAGCAAUAUUACGGCAC	-2.4 ± 0.11	-1.53 ± 0.18
CAGAAGCAAUAUUACGGUGG	-1.26 ± 0.067	-1.12 ± 0.079
AGGGAGCAAUAUUACGGAGC	-2.84 ± 0.38	-1.95 ± 0.48

Sequence	self-splicing fitness (ln) (30 °C)	self-splicing fitness (ln) (37 °C)
GAUUAGCAAUAUUACGGUGC	-1.8 ± 0.34	-1.4 ± 0.32
AUCCAGCAAUAUUACGUAUA	-0.94 ± 0.11	-1.11 ± 0.14
GCCUAGCAAUAUUACGAGAA		-1.26 ± 0.4
CAGCAGCAAUAUUACGCAUA	-1.81 ± 0.14	-1.43 ± 0.17
UACCAGCAAUAUUACGCGUC	-2.06 ± 0.11	-1.13 ± 0.1
GCUAAGCAAUAUUACGAUUC	-0.0116 ± 0.081	-0.128 ± 0.092
GGUUAGCAAUAUUACGAUAG	-1.82 ± 0.28	-1.14 ± 0.32
UAAUAGCAAUAUUACGUAGG	-2.37 ± 0.13	-1.06 ± 0.14
UAAUAGCAAUAUUACGGCGG	-1.27 ± 0.15	-0.245 ± 0.16
GUGCAGCAAUAUUACGGAUU	-1.66 ± 0.12	-0.37 ± 0.11
GCAUAGCAAUAUUACGGAUC	-2.47 ± 0.21	-1.63 ± 0.18
GAAAAGCAAUAUUACGACAG	-2.55 ± 0.19	-2.27 ± 0.25
ACGUAGCAAUAUUACGGAGG	-4.05 ± 0.28	-2.53 ± 0.19
GUUAAGCAAUAUUACGGCGU	-0.0268 ± 0.076	-0.00868 ± 0.094
GCGCAGCAAUAUUACGGUGA	-0.545 ± 0.066	-0.107 ± 0.086
GGGGAGCAAUAUUACGCUCU		-2.19 ± 0.49
GCACAGCAAUAUUACGCCUU	-0.943 ± 0.092	-0.623 ± 0.087
AACUAGCAAUAUUACGUGUA	-2.2 ± 0.09	-0.888 ± 0.09
AUCCAGCAAUAUUACGUGGA	-4.34 ± 0.39	-2.23 ± 0.19
ACUUAGCAAUAUUACGCUCA	-0.842 ± 0.13	-0.196 ± 0.15
GGUAAGCAAUAUUACGUAAG	-2.85 ± 0.16	-2.17 ± 0.17
GGCGAGCAAUAUUACGACUG	-0.978 ± 0.24	-0.589 ± 0.29
UCCGAGCAAUAUUACGCAAG	-3.27 ± 0.26	-1.77 ± 0.32
AUUCAGCAAUAUUACGGAGG	-2.29 ± 0.13	-1.13 ± 0.13
GCACAGCAAUAUUACGAGCA	-1.55 ± 0.11	-0.832 ± 0.12
AUCCAGCAAUAUUACGAAGG	-3.07 ± 0.2	-2.8 ± 0.23

Sequence	self-splicing fitness (ln) (30 °C)	self-splicing fitness (ln) (37 °C)
GCCAAGCAAUAUUACGCAAA	-1.13 ± 0.11	-0.448 ± 0.12
UCUCAGCAAUAUUACGAUUU	-1.99 ± 0.093	-1.1 ± 0.12
UGACAGCAAUAUUACGUAUC	-2.91 ± 0.097	-2.57 ± 0.13
CACGAGCAAUAUUACGCGCA	-3.24 ± 0.18	-2.52 ± 0.14
ACCUAGCAAUAUUACGCGCG	-0.971 ± 0.13	0.377 ± 0.13
GAGUAGCAAUAUUACGGCUG	-1.21 ± 0.19	-1.54 ± 0.27
CAGAAGCAAUAUUACGCAGG	-2.75 ± 0.15	-1.73 ± 0.13
GAACAGCAAUAUUACGGCCU	-1.14 ± 0.11	-0.067 ± 0.14
UCAUAGCAAUAUUACGUGUA	-2.35 ± 0.13	-1.84 ± 0.14
UAAAAGCAAUAUUACGAACU	-0.332 ± 0.23	-0.647 ± 0.2
AGUUAGCAAUAUUACGGCCC	-0.803 ± 0.33	
GAAAAGCAAUAUUACGCGCA	-0.195 ± 0.062	-0.0235 ± 0.084
UAGUAGCAAUAUUACGGCAU	-2.2 ± 0.15	-0.67 ± 0.16
ACCAAGCAAUAUUACGUUAU	-2.95 ± 0.087	-2.04 ± 0.093
AGCAAGCAAUAUUACGCGUG	-3.87 ± 0.19	-3.49 ± 0.27
UUCGAGCAAUAUUACGAGCG	-3.41 ± 0.4	-1.47 ± 0.2
CUUAAGCAAUAUUACGGCCG	-0.607 ± 0.093	-0.38 ± 0.13
AAGGAGCAAUAUUACGCACU	-1.53 ± 0.17	-0.454 ± 0.18
GCUAAGCAAUAUUACGCCAC	-1.43 ± 0.35	-2 ± 0.38
CGCAAGCAAUAUUACGGUCA	-0.699 ± 0.067	0.0685 ± 0.079
GACAAGCAAUAUUACGCUUU	-3.43 ± 0.42	-2.11 ± 0.32
CGUCAGCAAUAUUACGUUGU	-3.9 ± 0.23	-2.12 ± 0.18
GGUUAGCAAUAUUACGUGAA	-0.107 ± 0.13	-0.9 ± 0.14
GAUAAGCAAUAUUACGGGGA		-2.16 ± 0.23
